In this test the test system is VDAC. Put plainly: Blue Native Page and GST pull-down with heart mitochondria protein extracts. The conditions noted are these: BN-PAGE and GST pull-down. Format: binding, mouse. From the text: After ethical committee approval, all patients in this study gave written consent for sample collection and molecular analysis prior to inclusion. Patients were carefully selected by physicians from the Department of Cardiology, Toulouse University Hospital, prior to coronary by-pass surgery. Bioinformatics. Microarray expression data from human heart samples were downloaded from the GEO repository (GSE1145). This series consisted of 107 myocardial samples collected from patients undergoing cardiac transplantation whose failure arises from different etiologies (e.g. idiopathic dilated cardiomyopathy, ischemic cardiomyopathy, valvular cardiomyopathy, and hypertrophic cardiomyopathy) and from “normal” organ donors whose hearts cannot be used for transplants. Arrays were intensity normalized and hierarchical clustering (average group linkage, Pearson correlation, threshold r=0.8) was applied to identify groups of co-expressed genes. […] All ApoO sequences within the expression vectors were verified by DNA double strand sequencing using ABI PRISM®BigDye™ Terminator version 3.1 Ready reaction cycle sequencing kit (Life Technologies SAS, Villebon sur Yvette) and loaded on an ABI 3130XL DNA sequencing instrument (Life Technologies SAS, Villebon sur Yvette). […]

B1: ApoO: 198-amino acid apolipoprotein, SEQ ID NO: 1; tested by overexpression from expression vectors or transgene (protein, listed as Homo sapiens)
chain: MFKVIQRSVGPASLSLLTFKVYAAPKKDSPPKNSVKVDELSLYSVPEGQSKYVEEARSQLEESISQLRHYCEPYTTWCQETYSQTKPKMQSLVQWGLDSYDYLQNAPPGFFPRLGVIGFAGLIGLLLARGSKIKKLVYPPGFMGLAASLYYPQQAIVFAQVSGERLYDWGLRGYIVIEDLWKENFQKPGNVKNSPGTK
For the molecule B1, the “interaction with VDAC” value is “excluded any interaction”.

Source of the values: patent US10272135B2, “Apolipoprotein O and fragments thereof for inducing apoptosis in a cancerous cell” (INSERM (INSTITUT NATIONAL DE LA SANTÉ ET DE LA RECHERCHE …, priority 2014, dated 2019).
